Measured values as given in patent US12366576B2, “Compositions, assays, and methods for direct modulation of fatty acid metabolism” (Dana-Farber Cancer Institute, Inc., priority 2016, dated 2025).
Bridge positions count the residues as written; N and C are the ends. Square brackets hold non-standard residues; d marks the D form. Ends that are not written are not given here. S5 = C=CCCC[C@](C)(N)C(=O)O

Legend:
[1] = molecular target: T1, native VLCAD (Mus musculus, UniProt P50544); test: Biotinylated SAHB pulldown from MEF lysates, anti-VLCAD Western analysis; assay type: binding; details: for summary of binding properties: binding to VLCAD: pull-downs and ITC
T1 construct: As for native VLCAD from MEF lysates; endogenous in cells; host or cells: SV-40-transformed wild-type mouse embryonic fibroblasts (lysate)
T1 sequence (P50544 42-656): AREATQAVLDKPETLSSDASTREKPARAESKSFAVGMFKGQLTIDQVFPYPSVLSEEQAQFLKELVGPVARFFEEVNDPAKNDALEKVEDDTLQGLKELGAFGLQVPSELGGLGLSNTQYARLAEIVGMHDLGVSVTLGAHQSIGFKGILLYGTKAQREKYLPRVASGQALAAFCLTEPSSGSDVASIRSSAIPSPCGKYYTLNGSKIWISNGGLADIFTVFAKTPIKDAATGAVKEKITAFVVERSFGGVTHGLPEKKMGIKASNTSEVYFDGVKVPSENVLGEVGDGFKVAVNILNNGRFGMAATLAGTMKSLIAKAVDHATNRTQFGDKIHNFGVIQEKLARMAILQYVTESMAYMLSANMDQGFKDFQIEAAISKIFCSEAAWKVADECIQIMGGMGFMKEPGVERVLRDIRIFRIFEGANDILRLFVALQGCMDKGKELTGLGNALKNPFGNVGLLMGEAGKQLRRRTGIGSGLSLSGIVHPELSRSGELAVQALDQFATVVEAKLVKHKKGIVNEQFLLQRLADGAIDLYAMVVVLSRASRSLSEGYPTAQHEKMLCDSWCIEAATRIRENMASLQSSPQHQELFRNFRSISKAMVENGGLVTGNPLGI
Excerpt: To validate the MS result, the pulldowns were repeated and eluates run on a gel for anti-VLCAD Western blot analysis. […] All peptides faithfully recapitulated native BH3-binding propensities for endogenous MCL-1 protein (FIG. 8). The eluates were then probed for the other members of the acyl-CoA dehydrogenase family that manifest shorter fatty acid substrate specificities. MCL-1 SAHBD was able to pull down VLCAD, but not MCAD or SCAD (FIG. 9). Because the traditional MCL-1 staple location differs from that of the BIM, BID, and BAD SAHBs, it was important to confirm that the observed VLCAD binding specificity was due to BH3 sequence selectivity, not staple position. A BIM SAHB with the traditional MCL-1 staple (BIM SAHBF), and a MCL-1 stapled peptide with the traditional BIM staple (MCL-1 SAHBA), were generated. […] To confirm that the selective interaction between MCL-1 SAHBD and VLCAD is direct, recombinant VLCAD was generated and purified by size exclusion chromatography (FIGS. 11 and 12).
The binding determinants for the MCL-1 BH3/VLCAD interaction were investigated by generating a series of biotinylated MCL-1 SAHBD alanine point mutants (FIG. 18A) and performing streptavidin pull-downs from MEF lysates, followed by VLCAD and MCL-1 western analysis of the resulting eluates. […] Native alanines and residues not mutated are colored white. The dotted semicircles highlight the distinctive MCL-1 BH3 binding interfaces for VLCAD versus MCL-1 engagement, as defined by the differential sensitivities to alanine mutagenesis.
(§1) Wild-type MEFs were trypsinized, washed once with cold PBS, and lysed on ice with NP-40 lysis buffer (50 mM Tris, pH 7.4, 150 mM NaCl, 0.5% (v/v) NP-40, complete protease inhibitor pellet (Roche)) using 1 ml of lysis buffer for every 10 million cells lysed. Cellular debris was pelleted at 14,000 g for 10 min at 4° C., and the supernatant was quantified using the BCA Protein Assay Kit (Thermo Fisher Scientific). 2 mg of lysate per pulldown were then exposed to 50 μL of pre-equilibrated High Capacity Streptavidin Agarose beads (Thermo Fisher Scientific). The pre-cleared lysates were then incubated with 15 nmol biotinylated SAHBs (or vehicle, 1.5% (v/v) DMSO) overnight at 4° C., followed by addition of 50 μL of pre-equilibrated High Capacity Streptavidin Agarose beads for 2 hours at 4° C. The beads were then pelleted and washed with NP-40 lysis buffer three times before eluting the protein sample from the beads by heating at 70° C. for 10 min in SDS loading buffer. Samples were then subjected to electrophoresis and either Western analysis or Coomassie stain (SimplyBlue Safe Stain, Thermo Fisher Scientific). The antibodies used for Western analysis were the following: MCL-1 (Rockland 600-401-394; 1:1000 in 3% BSA), VLCAD (Thermo Fisher Scientific PA5-29959; 1:1000 in 1% milk+0.1% Tween-20), MCAD (Thermo Fisher Scientific PA5-27201; 1:1000 in 3% BSA), and SCAD (Abcam ab154823; 1:1000 in 3% BSA). Coomassie stained gels were then processed for proteomics analysis (see below). Biotinylated SAHB pulldowns of recombinant protein were performed as above incubating 5 nmol of SAHB with 10 pmol of rVLCAD in 500 μL total volume. Densitometry analyses were performed using ImageJ software.

[2] = tested on: endogenous MCL-1; test: Biotinylated SAHB pulldown from MEF lysates, anti-MCL-1 Western analysis; assay type: binding, mouse; details: summary, pull-downs
Method: An exploratory proteomics analysis was conducted to identify proteins that interact with the MCL-1 BH3 domain helix. An extensive library of MCL-1 stapled BH3 peptides (FIG. 2) was generated to both identify novel protein interactors by mass spectrometry and then deploy the stapled peptide constructs as novel probes to dissect and pharmacologically modulate the identified protein interactors and associated signaling pathways. As an example, an N-terminally biotinylated stapled peptide designed based on the sequence of MCL-1's BH3 domain (Btn-MCL-1 SAHBD), or vehicle, was incubated with wild-type mouse embryonic fibroblast (MEF) lysates, followed by high stringency streptavidin capture. To validate the proteomics workflow and ensure that Btn-MCL-1 SAHBD could, in fact, engage protein interactors in a lysate, eluates were first run on a gel for anti-MCL-1 Western analysis. […] For mass spectrometry (MS) analysis, eluates were run on a reducing/denaturing gel followed by Coomassie staining (FIG. 4) and in-gel digestion was performed before injection on the instrument.
The binding determinants for the MCL-1 BH3/VLCAD interaction were investigated by generating a series of biotinylated MCL-1 SAHBD alanine point mutants (FIG. 18A) and performing streptavidin pull-downs from MEF lysates, followed by VLCAD and MCL-1 western analysis of the resulting eluates. […] Native alanines and residues not mutated are colored white.
as §1, with “The pre-cleared lysates were then incubated with 15 nmol biotinylated SAHBs (or vehicle, 1.5% (v/v) DMSO) overnight at 4° C., followed by addition of 50 μL of pre-equilibrated High Capacity Streptavidin Agarose beads for 2 hours at 4° C.” left out, “The antibodies used for Western analysis were the following: MCL-1 (Rockland 600-401-394; 1:1000 in 3% BSA), VLCAD (Thermo Fisher Scientific PA5-29959; 1:1000 in 1% milk+0.1% Tween-20), MCAD (Thermo Fisher Scientific PA5-27201; 1:1000 in 3% BSA), and SCAD (Abcam ab154823; 1:1000 in 3% BSA).” left out

endogenous MCL-1, sequence (P97287 152-308 limits assumed): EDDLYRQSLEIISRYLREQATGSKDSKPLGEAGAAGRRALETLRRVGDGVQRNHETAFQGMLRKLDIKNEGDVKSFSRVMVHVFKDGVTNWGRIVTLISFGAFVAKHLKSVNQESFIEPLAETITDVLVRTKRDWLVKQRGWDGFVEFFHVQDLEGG

Row | Substance | summary of binding properties: binding to VLCAD [1] | summary of binding properties: binding to MCL-1 [2] | effect of alanine mutation on biotinylated MCL-1 SAHBD interaction with VLCAD ([1]; pull-downs from MEF lysates)
1 | E211A: biotinylated MCL-1 SAHBD alanine point mutant E211A (RKALATLRRVGDGV[S5]RNH[S5]TAF; staple 15-19; also: biotinylated, place not given here) | Binds | Binds | –
2 | G217A: biotinylated MCL-1 SAHBD alanine point mutant G217A (RKALETLRRVADGV[S5]RNH[S5]TAF; staple 15-19; also: biotinylated, place not given here) | Binds | weakly or not | –
3 | G219A: biotinylated MCL-1 SAHBD alanine point mutant G219A (RKALETLRRVGDAV[S5]RNH[S5]TAF; staple 15-19; also: biotinylated, place not given here) | Binds | Binds | –
4 | H224A: biotinylated MCL-1 SAHBD alanine point mutant H224A (RKALETLRRVGDGV[S5]RNA[S5]TAF; staple 15-19; also: biotinylated, place not given here) | Does not bind | Does not bind | –
5 | K208A: biotinylated MCL-1 SAHBD alanine point mutant K208A (RAALETLRRVGDGV[S5]RNH[S5]TAF; staple 15-19; also: biotinylated, place not given here) | enhanced binding | diminished binding | –
6 | L210A: biotinylated MCL-1 SAHBD alanine point mutant L210A (RKAAETLRRVGDGV[S5]RNH[S5]TAF; staple 15-19; also: biotinylated, place not given here) | weakly or not | Binds | uniquely disruptive
7 | T212A: biotinylated MCL-1 SAHBD alanine point mutant T212A (RKALEALRRVGDGV[S5]RNH[S5]TAF; staple 15-19; also: biotinylated, place not given here) | Binds | weakly or not | –
8 | T226A: biotinylated MCL-1 SAHBD alanine point mutant T226A (RKALETLRRVGDGV[S5]RNH[S5]AAF; staple 15-19; also: biotinylated, place not given here) | diminished binding | diminished binding | –
9 | V216A: biotinylated MCL-1 SAHBD alanine point mutant V216A (RKALETLRRAGDGV[S5]RNH[S5]TAF; staple 15-19; also: biotinylated, place not given here) | Binds | weakly or not | –
